# Measurements as given in the nanobody polyreactivity screen of Harvey et al. (2022).
# Assay: yeast display, Sf9 membrane polyspecificity reagent, FACS + sequencing; frameworks hold sequencing errors
# In short: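 Galactose-induced (36–48 hours) yeast carrying a synthetic nanobody display library were exposed to 10% biotinylated, detergent-solubilized Sf9 membrane reagent at 4 °C for 1 hour. FACS followed streptavidin microbead enrichment, using low and high (top ~1%) gates for expression (anti-HA) and reagent binding (streptavidin). Colony PCR, MiSeq 2 × 250 sequencing and CDR-length filtering followed. Labels for polyreactivity reflect the gate of origin.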
row,Sequence,polyreactivity (PSR sort gate)
1,QVQLVESGGGLVQAGGSLRLSCAASGSIITWYAMGWYRQAPGKERELVAAISNSDSSTYYADSVKGRFTISRDNAKNTVYLQMNILKPEDTAVYYCAAEYGLAWYNFEHWGQGTQVTVSS,high polyreactivity
2,QVQLVESGGGLVQAGGSLRLSCAASGSIIVDNAMGWYRQAHGKERELVAAITDSGGRTYYADSVKGRYTISRDNAKNTVYLQMNSLKPEDTAVYYCNKQYIYTGRYSDGFDYCGQGTQVTVSS,low polyreactivity
3,QVQLVESGGGLVQAGGSLRLSCAASGSIIVNYDMGWYRQAPGKERELVAAISSGGSTKYADSVKGRFTISRDNAKNTVYLQMNSLKPEDTAVYYCAAGKHVTFSYEYRMDYWGQGTQVTVSS,low polyreactivity
4,QVQLVESGGGLVQAGGSLRLSCAASGSIIVRNALGWYRQEPGTERELVAAISWGGGRTYYADSVKGRFTISRDNAKNTVYLQMNSLKPEDTAVYYCAAVHRAVQMGYWGQGTQVTVSS,high polyreactivity
5,QVQLVESGGGLVQAGGSLRLSCAASGSIIVRYAMGWYRQAPGKERALVATITFRDTSTYYADSVKGRFTITRDNAKNTVYLQMNSLKPEDTAVYYCAAVRADLWDIARYDYWGQGTQVTVSS,low polyreactivity
6,QVQLVESGGGLVQAGGSLRLSCAASGSIIYFNAMGWYRQAPGKERELVAAITRSGGSTYYADSVKGRFTISRDNAKNTVYLQMNSLKPEDTAVYYCAAEVWRTYSVEYDYWGQGTQVTVSS,high polyreactivity
7,QVQLVESGGGLVQAGGSLRLSCAASGSIIYHYAMGWYRQAPGKERELVAAITSSGGSTYYADSVKGRFTISRDNAKNTVYLQMNSLKPEDTEVYYCAVESRGRAGGNYWGQGTQVTVSS,low polyreactivity
8,QVQLVESGGGLVQAGGSLRLSCAASGSIIYLYAMGWYRQAPGKERELVAAINDDAGSTYYADSVKGRFTISRDNAKNTVYLQMNSLKPEDTAVYYCNAGSRSTEYDYWGQGTQVTVSS,low polyreactivity
9,QVQLVESGGGLVQAGGSLRLSCAASGSILAIYAMGWYRQAPGKERELVAAITWSGDSTYYADSVKGRFTISRDNAKNTVYLQMNSLKPEDTAVYYCAAGPGYWYEHEYWGQGTQVTVSS,low polyreactivity
10,QVQLVESGGGLVQAGGSLRLSCAASGSILALYTMGWYRQAPGKEREFVATITSSDGSTYYADSVKGRFTISRDNAKNTVYLQMNSLKPEDTAVYYCNARGSVYYLKFDYWGQGTQVTVSS,low polyreactivity
11,QVQLVESGGGLVQAGGSLRLSCAASGSILAYNAMGWYRQAPGKEREFVAAITGGVGSTYYADSVKGRFTISRDNAKNTVYLQMNSLKPEDTAVYYCAKRTYHEYNNQFVKYYYWGQGTQVTVSS,high polyreactivity
12,QVQLVESGGGLVQAGGSLRLSCAASGSILAYNAMGWYRQAPGKERELVASISKSGSSTYADSVKGRFTISRDNAKNTVYLQMNSLNPEDTAVYYCNARYYFSYYAFDYWGQGTQVTVSS,low polyreactivity
13,QVQLVESGGGLVQAGGSLRLSCAASGSILDFNAMGWYRQAPGKERELVAAISDSSGSTFYAVSVKGRFTISRDNAKNTVYLLMISLKPEDTAVYYCAARLGFYPYGYTSWYTVYFWGQGTQVTVSS,low polyreactivity
14,QVQLVESGGGLVQAGGSLRLSCAASGSILDPNAMGWYRQAPGKESELVANITNGGRTNFADSVKGRFTISRDNAKNTVYFQMNRLKPEDTAVYYCAKDSTFNSVTVLAPIIYDSWGQATQVTVSS,low polyreactivity
15,QVQLVESGGGLVQAGGSLRLSCAASGSILESNVMGWYRQAPGKERELVASISSSGDSTYADSVKGRFTISRDNAKNTVYLQMNSLKPEDTAVYYCNADRTQDRNPYTYATFDYWGQGTQVTVSS,low polyreactivity
16,QVQLVESGGGLVQAGGSLRLSCAASGSILESNVMGWYRQAPGKERELVASISSSGDSTYADSVKGRFTISRDNAKNTVYLQMNSLKPEDTEVYYCAADRWYWTYALYYWGQGTQVTVSS,low polyreactivity
17,QVQLVESGGGLVQAGGSLRLSCAASGSILFHYAMGWYRQAPGKERELVAAISRRGGSTYYADSVKGRFTISRDNAKNTVYFQMNSLKPEDNAVYYCAKYPSAYVDSDVTYDMDYWGQGTQVTVSS,low polyreactivity
18,QVQLVESGGGLVQAGGSLRLSCAASGSILGSNAMGWYRQPPGKESEFVAAITTITGSTYYADSVKGRFTISRDNAKNTVYLEMNSLKPEDTAVYYCNADAHESTDYTLYFSGPYYYWGQGTQVTVSS,low polyreactivity
19,QVQLVESGGGLVQAGGSLRLSCAASGSILGTNAMGWYRQAPGKESELVAAINYSGGNTYYADSVKGRFTISRDNAKNTVYLQMNSLKPEDTAVYYCAAVNGWRRVKRFDYWGQGTQVTVSS,high polyreactivity
20,QVQLVESGGGLVQAGGSLRLSCAASGSILGTYAMGWYRQAPGKVRELVAAISSSGRTSYADSVKGRFTISRDNAKNTGYLQMNSLKPEDTAVYYCNASNYIVLINDPYAAPWLYDYWGQGTQVTVSS,low polyreactivity
21,QVQLVESGGGLVQAGGSLRLSCAASGSILGVNVMGWYRQAPGKERELVAAISLSSSRTNYADSVKGRFTISRDNAKNTVYLQMNSLKPVDTAVYDCASAVRPGYARPYTSWGQGTQVTVSS,high polyreactivity
22,QVQLVESGGGLVQAGGSLRLSCAASGSILGVYTMGWYRQAPGKERELVAAITSSSSSTYADSVKGRFTISRDNAKNTVYLQMNSLKPEDTAVYYCATRGWSKQLYGGYTQYYYWGQGTQVTVSS,high polyreactivity

row,Sequence,polyreactivity (PSR sort gate)
1,QVQLVESGGGLVQAGGSLRLSCAASGSILGYYAMGLYRQAPGKERELVAAISGRGGSTYYADSLKGRFTISRDNAKNTVYLQMNSLKPEDTAVYYCAKRSVWRGWGQGTQVTVSS,high polyreactivity
2,QVQLVESGGGLVQAGGSLRLSCAASGSILGYYAMGWYRQAPGKERELVAANTASGGSTYYADSVKGRFTISRDNAKNTVYLQMNSLKPEDTAVYYCAAQYYATYGYWGQGTQVTVSS,low polyreactivity
3,QVQLVESGGGLVQAGGSLRLSCAASGSILHLYAMGWYRQAPGKERELVARINSGGTTNYADSVKGRFTISRDNAKNTVYLQMNSLKPEDTAVYYCAARFTPYITSDDGHYDYWGQGTQVTVSS,low polyreactivity
4,QVQLVESGGGLVQAGGSLRLSCAASGSILHPNGMGWYRQAPGKERELVAAITINGDSTYYADSVKGRFTISRDNAKNTVYLQMNSLKPEDTAVYYCAVDGWPTGWYYYWGQGTQVTVSS,low polyreactivity
5,QVQLVESGGGLVQAGGSLRLSCAASGSILHPNGMGWYRQAPGKERELVAAITINGDSTYYADSVKGRFTISRDNAKNTVYLQMNSLKPEDTAVYYFAVDGWPTGWYYYWGQGTQVTVSS,low polyreactivity
6,QVQLVESGGGLVQAGGSLRLSCAASGSILHPNGMGWYRQATGKERELVAAITINGDSTYYADSVKGRFTISRDNAKNTVYLQMNCLKPEDTAVYYCAVDGWPTGWYYYWGHGTQVTVSS,low polyreactivity
7,QVQLVESGGGLVQAGGSLRLSCAASGSILKGYTMGWYRQAPGKERELVAAITQTDNSTNYADSVKGRFTISRDNAKNTVYLQMNSLKPEDTAVYYCAASQLEFRRAFYYWGQGTQVTVSS,low polyreactivity
8,QVQLVESGGGLVQAGGSLRLSCAASGSILKPYAMGWYRQAPGKERELVARISSSGGRTYYADSVKGRFTISRDNAKNTFYFKMNSLKPEDTAVYYFAAAIVSYGRNDYWGQGTQVTVSS,high polyreactivity
9,QVQLVESGGGLVQAGGSLRLSCAASGSILKSNAMGWYRQAPGKERELVAAITYRDGSTYYADSVKGRFTISRDNAKNTVYLQMNSLKAEDTAVYYCAAEPSWWNVFYPGYNYWGQGTQVTVSS,high polyreactivity
10,QVQLVESGGGLVQAGGSLRLSCAASGSILLINAMGWYRQAPGKERELVAAIRTGGSTYYADSVKGRFTISRDNAKNTVYLQMNSLKPEDTAVYYCAVRTGRRWWKFDYWGQGTQVTVSS,low polyreactivity
11,QVQLVESGGGLVQAGGSLRLSCAASGSILLIYAMGWYRQAPGKERELVAGITRGGSTNYADSVKGRFTISRDNAKNTVYLQMNSLKPEDTAVYYCASDGGPARYLVSDRDYWGQGTQVTVSS,low polyreactivity
12,QVQLVESGGGLVQAGGSLRLSCAASGSILLVYAMGWYRPAPGKERELVAAIRWSGGSTYYADSVKGRFTISRDNAKNTVYLQMNSLKPEDTAVYYCNAGESYSVKGGPYDSDYWGQGTQVTVSS,low polyreactivity
13,QVQLVESGGGLVQAGGSLRLSCAASGSILLYYAMGGSRPAPGKERQLVAAITCSGGSTYYADSVKGRFTISRDNAKNTDYLQMNSQKPEDTAVYYCNAVTDRAGSDYDSWGQGTQVTVSS,low polyreactivity
14,QVQLVESGGGLVQAGGSLRLSCAASGSILNNYAMGWYRQAPGKERELVAAISSSGGTNYADSVKGRFKISRDNAKNTVYLQMNSLKPEDTAVYYCAKESLYQYDYWGQGTQVTVSS,low polyreactivity
15,QVQLVESGGGLVQAGGSLRLSCAASGSILPGNAMGWSRQAPGKERELVAAITYSGGSTYADSVKGRFTISRDNAKNTVYLQINSLKPEDTAVYYCNADFIDPSVYDYNYWGQGTQVTVSS,low polyreactivity
16,QVQLVESGGGLVQAGGSLRLSCAASGSILQRNAMGWYRQAPGKERELVAAISWSGDNTYYADSVKGRFTISRDNAKNTVYLQMNSLKPEDTAVYYCATDADIYFQEYDYWGQGTQVTVSS,low polyreactivity
17,QVQLVESGGGLVQAGGSLRLSCAASGSILQSYAMGWSRQAPGKERELGAALSGSGGSTYYADSVKGRFTISRDNAKNTVYLQMNSLKPEDTAVYYCAKGPLYRTSRGEFGYWGQGTQVTVSS,low polyreactivity
18,QVQLVESGGGLVQAGGSLRLSCAASGSILQSYAMGWYRQAPGKERELVAAITYRGGRTYYADSVKGRFTISRDNAKNTVYLQMNSLKPEDTAVYYCAADQQRSIDAPYGYWGQGTQVTVSS,low polyreactivity
19,QVQLVESGGGLVQAGGSLRLSCAASGSILRLYAMGWYRQAPGKERELVAAISSGGSTYYADSVKGRFPISRDNAKNTVYLQMNSLKPEDTAVYYCAAGVFWSWRYAYDYWGKGTQVTVSS,low polyreactivity
20,QVQLVESGGGLVQAGGSLRLSCAASGSILRQYAMGWYRQAPGKERELVATISRSGGSKYYADSVKGRFTISRDNAKNTVYLQMNSLKPEDTAVYYCAASRYNKSYREWWVGSWGQGTQVTVSS,high polyreactivity
21,QVQLVESGGGLVQAGGSLRLSCAASGSILRSYAMGWYRQAPGKERELVAVINGSGGRTYYADSVKGRFTISRDNAKNTVYLQMNSLKPEDTAVYYCNKRYRFTGIRDPFDYWGQGTQVTVSS,low polyreactivity
